Laboratory results from PMC2756588.

T1: Cdc25, P04821
T1 sequence (P04821 50-136, looked up): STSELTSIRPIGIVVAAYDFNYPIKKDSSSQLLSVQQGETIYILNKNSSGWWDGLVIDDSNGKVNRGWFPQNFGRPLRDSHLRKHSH

T2: Lsb3, P43603
T2 sequence (P43603 385-451, looked up): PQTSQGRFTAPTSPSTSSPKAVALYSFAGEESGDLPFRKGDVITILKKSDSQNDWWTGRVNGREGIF

T3: Sla1-2, P32790
T3 sequence (P32790 60-140, looked up): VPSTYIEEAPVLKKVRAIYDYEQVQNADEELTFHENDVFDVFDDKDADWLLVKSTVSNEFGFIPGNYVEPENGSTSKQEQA

T4: Pin3, Q06449
T4 sequence (Q06449 53-122, looked up): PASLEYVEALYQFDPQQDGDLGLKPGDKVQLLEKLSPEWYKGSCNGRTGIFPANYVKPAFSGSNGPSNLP

T5: Hse1, P38753
T5 sequence (P38753 208-285, looked up): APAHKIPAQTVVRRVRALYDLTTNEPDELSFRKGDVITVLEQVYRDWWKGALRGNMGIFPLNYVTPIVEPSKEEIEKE

T6: Boi2, P39969
T6 sequence (P39969 32-116, looked up): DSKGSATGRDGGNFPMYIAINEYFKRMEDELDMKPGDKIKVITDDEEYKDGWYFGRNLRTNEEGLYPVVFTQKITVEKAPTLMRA

T7: Lsb4, P32793
T7 sequence (P32793 402-468, looked up): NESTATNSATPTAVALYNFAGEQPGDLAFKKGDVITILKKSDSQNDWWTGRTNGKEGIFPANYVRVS

T8: Cyk3, Q07533
T8 sequence (Q07533 1-83, looked up): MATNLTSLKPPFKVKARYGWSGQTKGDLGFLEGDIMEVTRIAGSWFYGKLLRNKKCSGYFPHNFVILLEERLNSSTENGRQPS

T9: Bzz1-1, P38822
T9 sequence (P38822 478-572, looked up): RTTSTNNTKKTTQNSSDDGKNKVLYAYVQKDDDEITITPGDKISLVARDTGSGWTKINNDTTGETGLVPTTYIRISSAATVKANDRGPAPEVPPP

T10: Abp1, P15891
T10 sequence (P15891 535-592, looked up): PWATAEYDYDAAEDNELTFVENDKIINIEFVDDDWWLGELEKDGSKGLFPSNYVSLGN

T11: Sla1-3, P32790
T11 sequence (P32790 344-424, looked up): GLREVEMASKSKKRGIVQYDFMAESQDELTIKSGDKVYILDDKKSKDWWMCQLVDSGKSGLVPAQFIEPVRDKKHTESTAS

T12: Bzz1-2, P38822
T12 sequence (P38822 568-633, looked up): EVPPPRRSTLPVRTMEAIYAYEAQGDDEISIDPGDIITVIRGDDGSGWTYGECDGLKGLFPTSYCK

T13: Pex13, P80667
T13 sequence (P80667 295-386, looked up): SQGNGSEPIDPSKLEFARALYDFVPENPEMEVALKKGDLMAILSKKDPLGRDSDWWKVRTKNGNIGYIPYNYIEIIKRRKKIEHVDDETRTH

T14: Hof1, Q05080
T14 sequence (Q05080 590-669, looked up): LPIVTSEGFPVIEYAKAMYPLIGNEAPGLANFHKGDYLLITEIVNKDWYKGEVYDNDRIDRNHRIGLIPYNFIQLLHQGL

T15: Fus1, P11710
T15 sequence (P11710 432-512, looked up): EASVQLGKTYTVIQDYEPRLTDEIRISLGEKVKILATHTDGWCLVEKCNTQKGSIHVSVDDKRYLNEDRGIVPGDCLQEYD

T16: Myo5, Q04439
T16 sequence (Q04439 1072-1160, looked up): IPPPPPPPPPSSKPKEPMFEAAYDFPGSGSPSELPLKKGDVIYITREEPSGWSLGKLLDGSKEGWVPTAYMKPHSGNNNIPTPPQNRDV

T17: Boi1, P38041
T17 sequence (P38041 1-86, looked up): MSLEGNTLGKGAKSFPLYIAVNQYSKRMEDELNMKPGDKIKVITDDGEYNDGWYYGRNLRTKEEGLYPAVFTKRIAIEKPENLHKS

T18: Bud14, P27637
T18 sequence (P27637 247-328, looked up): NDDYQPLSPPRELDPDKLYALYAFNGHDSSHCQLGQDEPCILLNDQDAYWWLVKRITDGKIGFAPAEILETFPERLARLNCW

T19: Lsb1, P53281
T19 sequence (P53281 45-122, looked up): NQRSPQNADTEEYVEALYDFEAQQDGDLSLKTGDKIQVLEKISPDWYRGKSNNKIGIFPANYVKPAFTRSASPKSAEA

T20: Bbc1, P47068
T20 sequence (P47068 1-78, looked up): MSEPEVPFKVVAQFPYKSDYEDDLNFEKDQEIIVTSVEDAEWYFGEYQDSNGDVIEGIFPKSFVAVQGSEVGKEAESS

T21: Nbp2, Q12163
T21 sequence (Q12163 103-180, looked up): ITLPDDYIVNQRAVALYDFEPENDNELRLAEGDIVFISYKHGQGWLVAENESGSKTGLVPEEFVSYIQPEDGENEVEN

B1: unnamed (peptide)
chain: IVNKPLPPLPVAGSS
B2: unnamed (peptide)
chain: EREKALPPIPFTTTL
B3: unnamed (peptide)
chain: RRSKSLPITPKSIFN
B4: unnamed (peptide)
chain: NENKKLPPAPTVFGL

Assays:
Assay in all cases: SPOT array
Cdc25, P04821 = target: T1, Cdc25, P04821; conditions: median of control spots 969
Lsb3, P43603 = target: T2, Lsb3, P43603; conditions: median of control spots 406
Sla1-2, P32790 = target: T3, Sla1-2, P32790; conditions: median of control spots 712
Bem1-2, P29366 = conditions: median of control spots 4347
Chain of Bem1-2, P29366 (P29366 139-227): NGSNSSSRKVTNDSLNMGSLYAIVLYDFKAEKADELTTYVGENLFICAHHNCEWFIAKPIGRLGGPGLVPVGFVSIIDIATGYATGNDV

Pin3, Q06449 = target: T4, Pin3, Q06449; conditions: median of control spots 2171
Hse1, P38753 = target: T5, Hse1, P38753; conditions: median of control spots 1727
Sho1, P40073 = conditions: median of control spots 1148
Chain of Sho1, P40073 (P40073 287-367): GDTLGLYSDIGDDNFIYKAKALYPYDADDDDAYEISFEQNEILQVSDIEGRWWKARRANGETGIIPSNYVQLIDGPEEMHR

Boi2, P39969 = target: T6, Boi2, P39969; conditions: median of control spots 1161
Lsb4, P32793 = target: T7, Lsb4, P32793; conditions: median of control spots 397
GST = conditions: median of control spots 978
Cyk3, Q07533 = target: T8, Cyk3, Q07533; conditions: median of control spots 1451
Bzz1-1, P38822 = target: T9, Bzz1-1, P38822; conditions: median of control spots 4446
Abp1, P15891 = target: T10, Abp1, P15891; conditions: median of control spots 935
Sla1-3, P32790 = target: T11, Sla1-3, P32790; conditions: median of control spots 5475
Rvs167, P39743 = conditions: median of control spots 2707
Chain of Rvs167, P39743 (P39743 419-482): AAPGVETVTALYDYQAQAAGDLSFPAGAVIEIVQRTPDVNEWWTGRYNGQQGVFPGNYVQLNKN

Bzz1-2, P38822 = target: T12, Bzz1-2, P38822; conditions: median of control spots 4538
Pex13, P80667 = target: T13, Pex13, P80667; conditions: median of control spots 1341
Hof1, Q05080 = target: T14, Hof1, Q05080; conditions: median of control spots 4086
Fus1, P11710 = target: T15, Fus1, P11710; conditions: median of control spots 1200
Myo5, Q04439 = target: T16, Myo5, Q04439; conditions: median of control spots 471
Bem1-1, P29366 = conditions: median of control spots 4282
Chain of Bem1-1, P29366 (P29366 55-141): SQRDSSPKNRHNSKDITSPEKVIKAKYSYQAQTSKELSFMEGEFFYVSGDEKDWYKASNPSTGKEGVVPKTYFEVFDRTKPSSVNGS

Boi1, P38041 = target: T17, Boi1, P38041; conditions: median of control spots 1162
Myo3, P36006 = conditions: median of control spots 468
Bud14, P27637 = target: T18, Bud14, P27637; conditions: median of control spots 956
Lsb1, P53281 = target: T19, Lsb1, P53281; conditions: median of control spots 388
Bbc1, P47068 = target: T20, Bbc1, P47068; conditions: median of control spots 796
Nbp2, Q12163 = target: T21, Nbp2, Q12163; conditions: median of control spots 357

| Binder | SPOT intensity (Cdc25, P04821) | SPOT intensity (Lsb3, P43603) | SPOT intensity (Sla1-2, P32790) | SPOT intensity (Bem1-2, P29366) | SPOT intensity (Pin3, Q06449) | SPOT intensity (Hse1, P38753) | SPOT intensity (Sho1, P40073) | SPOT intensity (Boi2, P39969) | SPOT intensity (Lsb4, P32793) | SPOT intensity (GST) | SPOT intensity (Cyk3, Q07533) | SPOT intensity (Bzz1-1, P38822) | SPOT intensity (Abp1, P15891) | SPOT intensity (Sla1-3, P32790) | SPOT intensity (Rvs167, P39743) | SPOT intensity (Bzz1-2, P38822) | SPOT intensity (Pex13, P80667) | SPOT intensity (Hof1, Q05080) | SPOT intensity (Fus1, P11710) | SPOT intensity (Myo5, Q04439) | further results |
| --- | --- | --- | --- | --- | --- | --- | --- | --- | --- | --- | --- | --- | --- | --- | --- | --- | --- | --- | --- | --- | --- |
| B1 | 0 | 2 | 0 | 0 | 0 | 59 | 2240 | 0 | 0 | 0 | 0 | 0 | 301 | 0 | 0 | 2 | 688 | 1440 | 0 | 0 | SPOT intensity (Bem1-1, P29366): 0; SPOT intensity (Boi1, P38041): 1; SPOT intensity (Myo3, P36006): 0; SPOT intensity (Bud14, P27637): 0; SPOT intensity (Lsb1, P53281): 0; SPOT intensity (Bbc1, P47068): 0; SPOT intensity (Nbp2, Q12163): 0 |
| B2 | 0 | 4 | 1 | 0 | 2 | 1 | 1480 | 0 | 2 | 0 | 0 | 0 | 0 | 0 | 2 | 0 | 12 | 354 | 0 | 0 | SPOT intensity (Bem1-1, P29366): 1; SPOT intensity (Boi1, P38041): 0; SPOT intensity (Myo3, P36006): 0; SPOT intensity (Bud14, P27637): 0; SPOT intensity (Lsb1, P53281): 16; SPOT intensity (Bbc1, P47068): 0; SPOT intensity (Nbp2, Q12163): 0 |
| B3 | 15 | 0 | 1 | 0 | 4 | 0 | 1070 | 0 | 0 | 2 | 0 | 0 | 117 | 21 | 0 | 0 | 8 | 0 | 26 | 0 | SPOT intensity (Bem1-1, P29366): 0; SPOT intensity (Boi1, P38041): 0; SPOT intensity (Myo3, P36006): 0; SPOT intensity (Bud14, P27637): 10; SPOT intensity (Lsb1, P53281): 0; SPOT intensity (Bbc1, P47068): 15; SPOT intensity (Nbp2, Q12163): 0 |
| B4 | 4 | 1 | 0 | 0 | 0 | 0 | 927 | 0 | 0 | 0 | 1 | 3 | 9 | 1 | 2 | 0 | 9 | 25 | 0 | 0 | SPOT intensity (Bem1-1, P29366): 2; SPOT intensity (Boi1, P38041): 2; SPOT intensity (Myo3, P36006): 0; SPOT intensity (Bud14, P27637): 2; SPOT intensity (Lsb1, P53281): 0; SPOT intensity (Bbc1, P47068): 0; SPOT intensity (Nbp2, Q12163): 0 |
